To fix the notation:
T1: recombinant human TREM2 protein (amino acids 19 to 174) (human, UniProt Q9NZC2 19-174)
T1 chain: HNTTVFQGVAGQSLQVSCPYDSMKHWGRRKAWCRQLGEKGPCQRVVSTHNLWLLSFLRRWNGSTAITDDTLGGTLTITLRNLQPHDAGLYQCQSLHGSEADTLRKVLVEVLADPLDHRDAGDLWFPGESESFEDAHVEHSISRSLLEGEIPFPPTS

T2: recombinant human TREM2 protein (amino acids 19 to 174) (human, UniProt Q9NZC2 19-174)
T2 construct: range 19-174
T2 sequence (looked up): T1 chain

B1: Fc fusion antibody of single-domain antibody 2B5 (Fc fusion)
chain: ESGGGLVQPGGSLRLSCAASGFAFSNYVMHWYRQAPEKERELVALIGSQGGAYTNYAGSVKGRFTISRDNTKNMVYLQMNNLKPEDTAVYYCNVVYNGRPNWGQGTQVTVSS
notes: also called VHH-hFc; not shown: human IgG1 (vector RJK-V4-hFC1) or IgG4 (vector RJK-V4-3) hinge, CH2, CH3 with 6xHis tag; which of the two is told only
B2: Fc fusion antibody of single-domain antibody 1H1 (Fc fusion)
chain: ESGGGLVQPGGSLRLSCAASGRTFSSYVMGWFRQAPGKEREFVAAISWSGGITYYGDSVKGRFTISRDNAKNTVFLQMNSLKPEDTAVYYCASGSGSYYRGWEYDYWGQGTQVTVSS
notes: as for B1
B3: 11H2-hFC4 (Fc fusion antibody of single-domain antibody 11H2) (Fc fusion)
chain (part 1 of 2): ESGGGLVQPGGSLRLSCAASGLTFSEYYMSWVRQVPGKARELVAGITRGGNTYYADSVKGRFTISRDNAKNTVYLQMNNLKPEDTTVYYCNARRATTYYWGQGTQVTVSS
B4: Fc fusion antibody of single-domain antibody 12G10 (Fc fusion)
chain: B1 chain with L45I, G58A, T71A, N97I
notes: as for B1
B5: Fc fusion antibody of single-domain antibody 11D3 (Fc fusion)
chain: ESGGGLVQAGESLRLSCAASGRTFTDYAMGWFRQAPGKEREFVAGVSWSGSSTDYADSVKGRFTISTDNAKNTVYLQMTSLKPEDTAVYICGVKYFGHSRGGYDYWGQGTQVTVSS
notes: as for B1
B6: 12G12W-hFC1 (Fc fusion antibody of single-domain antibody 12G12W) (Fc fusion)
chain (part 1 of 2): B5 chain with D26N
B7: Fc fusion antibody of single-domain antibody 10E12 (Fc fusion)
chain: B3 chain (part 1 of 2) with L22F, E26G
notes: as for B1
B8: Fc fusion antibody of single-domain antibody 10F10 (Fc fusion)
chain: B1 chain with S25G, L45I, A52T, G58D, T71A, N97I
notes: as for B1
B9: Fc fusion antibody of single-domain antibody 10B3 (Fc fusion)
chain: B5 chain with D26N, M78I, T79N, S80N
notes: as for B1
B10: single-domain antibody 10E12 (VHH)
VHH: B3 chain (part 1 of 2) with L22F, E26G
notes: Crude extract from E. coli (pMECS vector), detected through an HA tag
B11: single-domain antibody 11H2 (VHH)
VHH: B3 chain (part 1 of 2)
notes: as for B10
B12: single-domain antibody 12G10 (VHH)
VHH: B1 chain with L45I, G58A, T71A, N97I
notes: as for B10
B13: single-domain antibody 10F10 (VHH)
VHH: B1 chain with S25G, L45I, A52T, G58D, T71A, N97I
notes: as for B10
B14: single-domain antibody 2B5 (VHH)
VHH: B1 chain
notes: as for B10
B15: single-domain antibody 1H1 (VHH)
VHH: B2 chain
notes: as for B10
B16: single-domain antibody 12G12W (VHH)
VHH: B5 chain with D26N
notes: as for B10
B17: single-domain antibody 10B3 (VHH)
VHH: B5 chain with D26N, M78I, T79N, S80N
notes: as for B10
B18: single-domain antibody 11D3 (VHH)
VHH: B5 chain
notes: as for B10

Changes are numbered by the printed parent chain.

Usually EC50 stands for the concentration giving half of the maximal effect.

The target of one assay is T1, recombinant human TREM2 protein (amino …). The assay can be described thus: ELISA. On the technique in general: In an ELISA, binding on a coated surface is turned into a signal by an enzyme label.
Consider B1, for which the EC50 came to 0.201 nM.

As to B2, the EC50 came out at 0.38 nM.

The target is the same in the next assay. Nature of the assay: ELISA. The source holds these as a separate data set.
Take B3: the EC50 worked out at 0.33 nM. B4: the EC50 turned out to be 0.3 nM. Turning to B5, the EC50 came to 0.337 nM.

For the next assay the target is unchanged. Nature of the assay: ELISA. The source holds these as a separate data set.
As to B6, the EC50 was 0.254 nM.

A further assay has the same target. Nature of the assay: ELISA. The source holds these as a separate data set.
Regarding B7, the EC50 was 0.293 nM. In the case of B8, the EC50 was 0.265 nM. In the case of B9, the EC50 was found to be 0.242 nM.

Another assay addresses T2, recombinant human TREM2 protein (amino …). The assay can be described thus: ELISA, VHH-hFc titrated on coated TREM2 (1 ug/mL), HRP-goat anti-hIgG.
As to B7, the binding result was “binds”.

As for B4, the binding result is given as “binds”. Take B8: the binding result is “binds”. As for B1, the binding result is “binds”. B2: the binding result is “binds”. The same measure, in the same setting: the entry for B5 is “binds”; for B9 it is “binds”.

The next assay has the same target. Nature of the assay: ELISA, crude VHH extract on coated TREM2, anti-HA-HRP; positive if OD450 more than five times the control. Here is the method:
Crude antibodies were obtained by osmotic bursting. The TREM2 recombinant proteins were diluted in 100 mM NaHCO₃ of pH 8.3, respectively. An ELISA plate was then coated with 100 μg of the proteins and left at 4° C. overnight. 100 μL of the obtained crude antibody extract was transferred to the ELISA plate into which the antigen was added. The plate was incubated at room temperature for 1 h. The unbound antibody was washed away with phosphate buffered saline with Tween (PBST), and 100 μL of Mouse Anti-HA tag Antibody (HRP) (mouse anti-HA horseradish peroxidase-labeled antibody, Thermo Fisher) at 1:2000 dilution was added and incubated at room temperature for 1 h. The unbound antibody was washed away with PBST, and a horseradish peroxidase color development solution was added. After react at 37° C. for 15 min, a stopping solution was added. The absorbance value was read at the wavelength of 450 nm on a microplate reader.
When an optical density (OD) value of a sample well is more than five times greater than that of the control well, the sample well is identified as a positive clone well. The bacteria in the positive clone well were transferred to an LB medium containing 100 μg/mL ampicillin under shaking for plasmid extraction and sequencing.
As to B10, the binding result is reported as “binds”. Regarding B11, the binding result is listed as “binds”. Consider B12, for which the binding result was “binds”. On to B13, for which the binding result is on record as “binds”. On the same count and under the same terms, with B14 the entry was “binds”; with B15, “binds”. Still for that read-out and setting: with B16 the entry was “binds”. On to B17, for which the binding result is “binds”. With B18, the binding result is reported as “binds”.
